Strand notation (5' to 3'): a small letter for the sugar, then the base; units joined by * are phosphorothioate-linked, units joined directly phosphodiester-linked; [ ] holds rarer units or linkages, { } end groups; capitals alone tell only the bases. m = 2'-O-methyl; r = 2'-OH (RNA)
Experiments:
TTR = TTR editing in primary human hepatocytes transfected with Spy Cas9 mRNA and sgRNAs (Table 13); format: cell-based; settings: primary human hepatocytes co-transfected with Spy Cas9 mRNA (SEQ ID NO:2) and sgRNAs, 12.5 nM
Procedure: Primary liver hepatocytes. Primary human liver hepatocytes (PHH) and primary cynomolgus liver hepatocytes (PCH) (Gibco) were cultured per the manufacturer's protocol (Invitrogen, protocol 11.28.2012). In brief, the cells were thawed and resuspended in hepatocyte thawing medium with supplements (Gibco, Cat. CM7000) followed by centrifugation at 100 g for 10 minutes for human and 80 g for 4 minutes for cyno. The supernatant was discarded and the pelleted cells resuspended in hepatocyte plating medium plus supplement pack (Invitrogen, Cat. A1217601 and CM3000). Cells were counted and plated on Bio-coat collagen I coated 96-well plates (ThermoFisher, Cat. 877272) at a density of 33,000 cells/well for human or 60,000 cells/well for cyno (or 65,000 cells/well when assaying effects on TTR protein, described further below). Plated cells were allowed to settle and adhere for 6 or 24 hours in a tissue culture incubator at 37° C. and 5% CO2 atmosphere. After incubation cells were checked for monolayer formation and media was replaced with hepatocyte culture medium with serum-free supplement pack (Invitrogen, Cat. A1217601 and CM4000).
Lipofectamine RNAiMax (ThermoFisher, Cat. 13778150) based transfections were conducted as per the manufacturer's protocol. Cells were sequentially transfected with a lipoplex containing Spy Cas9 mRNA (100 ng), Lipofectamine RNAiMax (0.4 […]) and tracer RNA ([…]), Lipofectamine RNAiMax (0.4 μL/well) and OptiMem.
Transfected cells were harvested post-transfection at 24, 48, or 72 hours. The genomic DNA was extracted from each well of a 96-well plate using 50 μL/well BuccalAmp DNA Extraction solution (Epicentre, Cat. QE09050) per manufacturer's protocol. All DNA samples were subjected to PCR and subsequent NGS analyses, as described herein.
To quantitatively determine the efficiency of editing at the target location in the genome, sequencing was utilized to identify the presence of insertions and deletions introduced by gene editing.
Primers were designed around the target site within the gene of interest (e.g. TTR), and the genomic area of interest was amplified.
Additional PCR was performed per the manufacturer's protocols (Illumina) to add chemistry for sequencing. The amplicons were sequenced on an Illumina MiSeq instrument. The reads were aligned to a reference genome (e.g., the human reference genome (hg38), the cynomologus reference genome (mf5), the rat reference genome (rn6), or the mouse reference genome (mm10)) after eliminating those having low quality scores. The resulting files containing the reads were mapped to the reference genome (BAM files), where reads that overlapped the target region of interest were selected and the number of wild type reads versus the number of reads which contain an insertion, substitution, or deletion was calculated.
The editing percentage (e.g., the “editing efficiency” or “percent editing” or “indel frequency”) is defined as the total number of sequence reads with insertions/deletions (“indels”) or substitutions over the total number of sequence reads, including wild type.
Guides in modified sgRNA format targeting human and/or cyno TTR were delivered to primary human hepatocytes and primary cyno hepatocytes as described in Example 1. Percent editing was determined for crRNAs comprising each guide sequence across each cell type and the guide sequences were then rank ordered based on highest % edit. The screening data for the guide sequences in Table 2 in both cell lines are listed below (Table 12 through 15).

[1] = system: off-target integration sites; test: Off-target oligo insertion based assay in primary human hepatocytes (Table 30); format: cell-based; settings: TTR sgRNAs in PHH, 100 ng Cas9 mRNA, 25 nM sgRNA, 12.5 nM donor oligo
Procedure: Off-target analysis of sgRNAs targeting TTR was performed in primary human hepatocytes (PHH) as described in Example 5, with the following modifications. PHH were plated at a density of 33,000 cells per well on collagen-coated 96-well plates as described in Example 1. Twenty-four hours post plating, cells were washed with media and transfected using Lipofectamine RNAiMAX (ThermoFisher, Cat. 13778150) as described in Example 1. Cells were transfected with a lipoplex containing 100 ng Cas9 mRNA, immediately followed by the addition of another lipoplex containing 25 nM of the sgRNA and 12.5 nM of the donor oligo (0.3 μL/well). Cells were lysed 48 hours post-transfection and gDNA was extracted and analyzed as further described in Example 5. The data is graphically represented in FIG. 20.
Fewer sites were detected in PHH for every guide tested as compared to the HekCas9 cell line, with no unique sites detected in PHH alone.

B1: G000572: TTR sgRNA modified sequence, Human, SEQ ID No. 113; guide sequence of CR003385 (nucleic acid)
guide: mC*mC*mC*rCrUrArCrUrCrCrUrArUrUrCrCrArCrCrArGrUrUrUrUrArGrAmGmCmUmAmGmAmAmAmUmAmGmCrArArGrUrUrArArArArUrArArGrGrCrUrArGrUrCrCrGrUrUrArUrCrAmAmCmUmUmGmAmAmAmAmAmGmUmGmGmCmAmCmCmGmAmGmUmCmGmGmUmGmCmU*mU*mU*mU
TTR
  Avg % Deletion: 13.85%
  Avg % Edit: 55.42%
  Avg % Insert: 41.62%
[1]
  # Sites in PHH: 2

Reference: US11795460B2, “Compositions and methods for TTR gene editing and treating ATTR amyloidosis” (Intellia Therapeutics, Inc., priority 2017, dated 2023)
